Test [1] deals with T1, GTSE1 (purified recombinant) (human, UniProt Q9NYZ3 1-739).
T1 sequence (looked up): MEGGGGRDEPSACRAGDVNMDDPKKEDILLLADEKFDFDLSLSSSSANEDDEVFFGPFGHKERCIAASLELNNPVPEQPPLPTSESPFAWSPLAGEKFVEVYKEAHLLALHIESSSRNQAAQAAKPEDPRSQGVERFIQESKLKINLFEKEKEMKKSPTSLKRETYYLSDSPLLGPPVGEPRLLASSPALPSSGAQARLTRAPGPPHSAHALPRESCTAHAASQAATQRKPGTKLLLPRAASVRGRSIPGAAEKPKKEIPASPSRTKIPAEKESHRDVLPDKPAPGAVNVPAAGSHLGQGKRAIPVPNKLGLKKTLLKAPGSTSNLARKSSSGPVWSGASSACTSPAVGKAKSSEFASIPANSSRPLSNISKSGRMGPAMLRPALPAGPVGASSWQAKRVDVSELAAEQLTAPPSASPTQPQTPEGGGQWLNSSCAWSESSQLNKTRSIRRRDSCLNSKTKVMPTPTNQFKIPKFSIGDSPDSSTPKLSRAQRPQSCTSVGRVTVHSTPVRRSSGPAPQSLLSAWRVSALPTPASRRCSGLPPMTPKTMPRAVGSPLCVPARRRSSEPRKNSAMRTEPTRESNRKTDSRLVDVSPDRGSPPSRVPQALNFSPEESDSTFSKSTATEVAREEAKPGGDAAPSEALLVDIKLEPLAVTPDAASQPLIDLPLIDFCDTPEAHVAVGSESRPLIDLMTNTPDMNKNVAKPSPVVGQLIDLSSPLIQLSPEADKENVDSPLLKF
Briefly: pull-down.

The next test deals with T2, GTSE1-GFP (purified) (human, UniProt Q9NYZ3 1-739).
T2 sequence (looked up): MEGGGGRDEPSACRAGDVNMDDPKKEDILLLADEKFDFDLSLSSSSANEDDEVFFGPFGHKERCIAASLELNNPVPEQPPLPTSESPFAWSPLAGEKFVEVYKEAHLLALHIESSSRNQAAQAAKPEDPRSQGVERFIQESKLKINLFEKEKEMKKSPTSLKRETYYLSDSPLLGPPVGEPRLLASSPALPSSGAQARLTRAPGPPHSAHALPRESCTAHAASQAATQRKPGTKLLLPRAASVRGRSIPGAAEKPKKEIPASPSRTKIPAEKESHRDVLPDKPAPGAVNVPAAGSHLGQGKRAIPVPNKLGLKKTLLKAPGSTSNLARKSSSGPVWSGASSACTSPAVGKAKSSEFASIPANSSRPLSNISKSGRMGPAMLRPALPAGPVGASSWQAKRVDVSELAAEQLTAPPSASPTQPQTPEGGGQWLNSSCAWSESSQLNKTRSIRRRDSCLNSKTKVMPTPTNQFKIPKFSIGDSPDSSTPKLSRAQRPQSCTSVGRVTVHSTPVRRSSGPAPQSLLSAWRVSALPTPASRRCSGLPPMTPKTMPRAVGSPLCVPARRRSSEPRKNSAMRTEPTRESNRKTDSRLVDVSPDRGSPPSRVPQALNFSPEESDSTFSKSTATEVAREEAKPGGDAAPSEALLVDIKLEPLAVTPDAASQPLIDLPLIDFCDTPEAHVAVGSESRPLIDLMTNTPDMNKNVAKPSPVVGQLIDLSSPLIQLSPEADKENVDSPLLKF
Briefly: pull-down.

A further test has as its target T3, CHC(1–364) (UniProt Q00610 1-364).
T3 sequence (looked up): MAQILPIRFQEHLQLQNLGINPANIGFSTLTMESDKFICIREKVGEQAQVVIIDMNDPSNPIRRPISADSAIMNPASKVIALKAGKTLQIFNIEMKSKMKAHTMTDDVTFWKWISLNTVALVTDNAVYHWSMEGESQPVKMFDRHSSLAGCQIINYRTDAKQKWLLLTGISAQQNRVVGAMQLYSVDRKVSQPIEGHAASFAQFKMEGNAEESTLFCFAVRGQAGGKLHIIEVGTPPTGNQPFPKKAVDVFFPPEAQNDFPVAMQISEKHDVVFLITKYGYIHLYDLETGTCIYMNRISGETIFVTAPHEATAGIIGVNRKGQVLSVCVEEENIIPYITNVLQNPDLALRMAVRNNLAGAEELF
Put plainly: crystal structure.

For another test, the target named is T4, CHC(1–642)-6xHis (UniProt Q00610 1-642).
T4 sequence (looked up): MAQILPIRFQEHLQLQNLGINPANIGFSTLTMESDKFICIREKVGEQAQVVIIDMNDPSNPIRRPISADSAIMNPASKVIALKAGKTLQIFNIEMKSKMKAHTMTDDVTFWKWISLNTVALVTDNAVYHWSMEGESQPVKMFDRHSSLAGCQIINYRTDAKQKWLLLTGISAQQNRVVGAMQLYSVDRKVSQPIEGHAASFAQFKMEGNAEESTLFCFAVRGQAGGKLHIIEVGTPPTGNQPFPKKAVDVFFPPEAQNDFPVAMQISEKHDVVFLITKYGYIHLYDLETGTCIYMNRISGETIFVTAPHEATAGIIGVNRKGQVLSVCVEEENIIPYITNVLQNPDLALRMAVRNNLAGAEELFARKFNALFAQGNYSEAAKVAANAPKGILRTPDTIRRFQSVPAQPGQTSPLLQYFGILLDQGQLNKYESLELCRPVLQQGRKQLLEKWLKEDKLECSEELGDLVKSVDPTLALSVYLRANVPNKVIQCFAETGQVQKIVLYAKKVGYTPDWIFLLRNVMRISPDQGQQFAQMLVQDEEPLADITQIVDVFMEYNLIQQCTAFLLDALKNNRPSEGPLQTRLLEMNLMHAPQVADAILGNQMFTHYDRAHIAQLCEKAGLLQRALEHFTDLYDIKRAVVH
Briefly: pull-down.

B1: GST-CHC(1–330) (domain or fragment, UniProt Q00610 1-330, looked up)
chain: MAQILPIRFQEHLQLQNLGINPANIGFSTLTMESDKFICIREKVGEQAQVVIIDMNDPSNPIRRPISADSAIMNPASKVIALKAGKTLQIFNIEMKSKMKAHTMTDDVTFWKWISLNTVALVTDNAVYHWSMEGESQPVKMFDRHSSLAGCQIINYRTDAKQKWLLLTGISAQQNRVVGAMQLYSVDRKVSQPIEGHAASFAQFKMEGNAEESTLFCFAVRGQAGGKLHIIEVGTPPTGNQPFPKKAVDVFFPPEAQNDFPVAMQISEKHDVVFLITKYGYIHLYDLETGTCIYMNRISGETIFVTAPHEATAGIIGVNRKGQVLSVCVE
Take B1: the binding result (in test [1]; with GTSE1-GFP (purified)) was “binds” throughout.

B2: GST-CHC(1–330) S2M (domain or fragment, UniProt Q00610 1-330, looked up)
chain: MAQILPIRFQEHLQLQNLGINPANIGFSTLTMESDKFICIREKVGEQAQVVIIDMNDPSNPIRRPISADSAIMNPASKVIALKAGKTLQIFNIEMKSKMKAHTMTDDVTFWKWISLNTVALVTDNAVYHWSMEGESQPVKMFDRHSSLAGCLIQNYRTDAKQKWLLLTGISAQQNRVVGAMQLYSVDRKVSQPIEGHAASFAQFKMEGNAEESTLFCFAVRGQAGGKLHIIEVGTPPTGNQPFPKKAVDVFFPPEAQNDFPVAMQISEKHDVVFLITKYGYIHLYDLETGTCIYMNRISGETIFVTAPHEATAGIIGVNRKGQVLSVCVE
Turning to B2, the binding result in test [1] is “binds”.

B3: GTSE1-C4 (domain or fragment, human)
chain: GPLGSQPLIDLPLIDFCDTPEAHVAVGSESRPLIDLMTNTPDMNKNVAKPSPVVGQLIDLSSPLIQLSPE
Consider B3, for which, in the test with CHC(1–364), the binding result is listed as “binds”.

B4: GTSE1-C5 (domain or fragment, human)
chain: GPLGSLAVTPDAASQPLIDLPLIDFCDTPEAHVAVGSESRPLIDLMTNTPDMNKNVAKPSPVVGQLIDLSSP
In the case of B4, in the test with CHC(1–364), the binding result was “binds”.

In the case of PLAVTPDAASQPLIDLPLIDFCDTPEAHVAVGSESR (domain or fragment, human, UniProt Q9NYZ3 652-687, looked up) [GST-GTSE1-C1], the binding result with CHC(1–642)-6xHis is on record as “binds”. Same read-out and setting: to MTNTPDMNKNVAKPSPVVGQLIDLSSPLIQLSPEADKENVDSPLLKF (domain or fragment, human, UniProt Q9NYZ3 693-739, looked up) [GST-GTSE1-C3] belongs “binds”; to MTNTPDMNKNVAKPSPVVGQLIDLSSPAAALSPEADKENVDSPLLKF (domain or fragment, human, UniProt Q9NYZ3 693-739, looked up) [GST-GTSE1-C3 motif E mutant], “binds”.

These data come from paper PMC7041688 (The Journal of Cell Biology, 2020).
